Assay results reported in paper PMC7949163.
One block for each molecule: values may come before it.

Assays:
[1] = biological target: Mutual gliding-motility protein B (MglB) (Myxococcus xanthus) (UniProt Q1DB03); test: ITC; 25 °C; 50 μM MglB in the cell titrated with 500 μM MglC; one set of sites model; triplicates
[2] = biological target: Mutual gliding motility protein C (MglC) (Myxococcus xanthus); test: SAXS; SAXSpace line collimation, 20 °C; MglB 25, 15, 10 mg/ml; MglC 35, 15, 20 mg/ml; MglBC and MglB^ΔCTC complexes freshly eluted from SEC
[3] = biological target: Mutual gliding-motility protein B (MglB) (Myxococcus xanthus) (UniProt Q1DB03); test: as above
[4] = biological target: Mutual gliding motility protein C (MglC) (Myxococcus xanthus); test: SEC; analytical SEC, Superdex 200 Increase 10/300, 0.5 ml/min, A280; proteins alone or MglB:MglC mixed 1:1, 2:1 and 1:2; MglB mutants mixed with MglC 2:1
[5] = biological target: Mutual gliding-motility protein B (MglB) (Myxococcus xanthus) (UniProt Q1DB03); test: as above
[6] = biological target: T1, Mutual gliding-motility protein B (MglB) (Myxococcus xanthus), Q1DB03; test: SAXS; SAXSpace line collimation, 20 °C; MglB 25, 15, 10 mg/ml; MglC 35, 15, 20 mg/ml; MglBC and MglB^ΔCTC complexes freshly eluted from SEC; settings: remark: other sources report otherwise
T1 chain: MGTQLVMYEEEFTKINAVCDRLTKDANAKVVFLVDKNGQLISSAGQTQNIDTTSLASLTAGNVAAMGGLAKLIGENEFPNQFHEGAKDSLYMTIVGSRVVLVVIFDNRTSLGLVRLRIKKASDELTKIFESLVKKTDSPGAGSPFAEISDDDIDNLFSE

[7] = biological target: T1, Mutual gliding-motility protein B …; test: SEC; analytical SEC, Superdex 200 Increase 10/300, 0.5 ml/min, A280; proteins alone or MglB:MglC mixed 1:1, 2:1 and 1:2; MglB mutants mixed with MglC 2:1; settings: remark: other sources report otherwise

Kd [1]: 417 nM
dH [1]: 6.94 kcal/mol
stoichiometry N [1]: 0.51
stoichiometry N [2]: 2
stoichiometry N (MglC per MglB) [3]: 0.5
stoichiometry N [4]: 2
stoichiometry N (MglC per MglB) [5]: 0.5
Molecule: Mutual gliding motility protein C (MglC) (natural protein)

stoichiometry N [6]: 2
stoichiometry N [7]: 2
B1: Mutual gliding-motility protein B (MglB), Q1DB03 1-159 (natural protein)
chain: T1 chain
